From patent publication EP4674868A1 (Jiangsu Hengrui Pharmaceuticals Co., Ltd., dated 2026)
Where two headings read alike, the source gives them in different places. Values belong to the binder of their own block, whether it stands above or below them.

Experiments:
[1] = biological target: T1, human CD40 on the surface of HEK293 cells (HEK293-HuCD40) (human, UniProt P25942 21-277); assay: cell-based or functional assay
[2] = biological target: T1, human CD40 on the surface of HEK293 …; assay: FACS, HEK293 cells transiently expressing human CD40
[3] = biological target: T2, human FAP on the surface of CHO-K1 cells (CHO-K1-HuFAP) (human, UniProt Q12884 1-760); assay: FACS, CHO cell line overexpressing human FAP
T2 construct: whole, on cells; also called CHO cell line overexpressing human FAP; FAP on the surface of CHO-K1-HuFAP cells

[4] = biological target: T3, h-FAP-His (recombinant human fibroblast activation protein, Leu26-Asp760, His-tagged) (human, UniProt Q12884 26-760); assay: ELISA, plate coated with human FAP-His
T3 construct: range 26-760; Bought protein with a His tag; also called human FAP-His protein; His-tagged FAP recombinant protein

[5] = biological target: T3, h-FAP-His (recombinant human fibroblast …); assay: SPR, antibody captured by anti-human IgG (Fc) on CM5 chip, h-FAP-His as analyte
[6] = biological target: T1, human CD40 on the surface of HEK293 …; assay: FACS, HEK293-HuCD40 cells
[7] = biological target: T2, human FAP on the surface of CHO-K1 …; assay: FACS, CHO-K1-HuFAP cells
[8] = biological target: T4, human 4-1BB on the surface of HEK293 cells (HEK293-Hu4-1BB) (human, UniProt Q07011 24-255); assay: cell-based or functional assay
[9] = biological target: T1, human CD40 on the surface of HEK293 …; assay: cell-based or functional assay; remark: listed apart in the source
[10] = biological target: T4, human 4-1BB on the surface of HEK293 …; assay: FACS, HEK293-Hu4-1BB cells
[11] = biological target: T2, human FAP on the surface of CHO-K1 …; assay: FACS, CHO-K1-HuFAP cells; remark: listed apart in the source
[12] = biological target: T4, human 4-1BB on the surface of HEK293 …; assay: FACS, HEK293-Hu4-1BB cells; remark: listed apart in the source
[13] = biological target: T1, human CD40 on the surface of HEK293 …; assay: FACS, HEK293-HuCD40 cells; remark: listed apart in the source
[14] = biological target: T1, human CD40 on the surface of HEK293 …; assay: FACS, HEK293-HuCD40 cells; remark: listed apart in the source
[15] = biological target: T1, human CD40 on the surface of HEK293 …; assay: cell-based or functional assay; remark: listed apart in the source
[16] = biological target: T4, human 4-1BB on the surface of HEK293 …; assay: FACS, HEK293-Hu4-1BB cells; remark: listed apart in the source
[17] = biological target: T4, human 4-1BB on the surface of HEK293 …; assay: cell-based or functional assay; remark: listed apart in the source
[18] = biological target: T2, human FAP on the surface of CHO-K1 …; assay: FACS, CHO-K1-HuFAP cells; remark: listed apart in the source
[19] = biological target: T4, human 4-1BB on the surface of HEK293 …; assay: cell-based or functional assay; remark: listed apart in the source

EC50 [3]: 0.000432 µg/mL
EC50 [4]: 92 µg/mL
Kd [5]: 245 pM
Ratio of KD of 28H1 to KD of test antibody [5]: 5.3
Ratio of Kd of 28H1 to Kd of test antibody [5]: 3.5
koff [5]: 7.28e-05 s⁻¹
kon [5]: 297000 M⁻¹ s⁻¹
B3: anti-human FAP monoclonal antibody Ab10 (antibody, human IgG1, kappa, L234A L235A, V domains shown)
VH: QVQLQQSGVEVKKPGASVTVSCRASGYSFADHFIHWVRQAPGQGFQWMGWINPNRGVTHHAQDFQGRVAMTRDMSTDTVYMELTSLRSDDTAVYYCARDASLTARPYYFYGFDVWGQGTLVTVSS
VL: DIQMTQSPSSVSASVGDRVTITCRASQGISSWLAWYQQKPGKAPKLLIYAASSLQSGVPSRFSGSGSGTDFTLTISSLQPEDFATYYCQQANSFPPAFGQGTKVEIKR
notes: Full-length heavy and light chains with human constant regions; also called anti-FAP antibody Ab10

Maximum fluorescence value [6]: 89
EC50 [7]: 1330 pM
Maximum fluorescence value [7]: 48400
4-1BB/NF-κB luciferase reporter, CD40-crosslinked, Fold change in Emax [8]: 2.3 fold
4-1BB/NF-κB luciferase reporter, FAP-crosslinked, EC50 [8]: 40 pM
4-1BB/NF-κB luciferase reporter, FAP-crosslinked, Fold change in Emax [8]: 9.95 fold
4-1BB/NF-κB luciferase reporter, uncrosslinked, Fold change in Emax [8]: 5.97 fold
CD40/NF-κB reporter (HEK-Blue CD40L), 4-1BB-crosslinked, Fold change in Emax [9]: 1 fold
CD40/NF-κB reporter (HEK-Blue CD40L), FAP-crosslinked, Fold change in Emax [9]: 1 fold
CD40/NF-κB reporter (HEK-Blue CD40L), uncrosslinked, Fold change in Emax [9]: 0.99 fold
EC50 [10]: 573 pM
Maximum fluorescence value [10]: 8440
EC50 [11]: 1920 pM
Maximum fluorescence value [11]: 112000
EC50 [12]: 670 pM
Maximum fluorescence value [12]: 8200
Maximum fluorescence value [13]: 106
Maximum fluorescence value [14]: 2330
CD40/NF-κB reporter (HEK-Blue CD40L), 4-1BB-crosslinked, Fold change in Emax [15]: 1 fold
CD40/NF-κB reporter (HEK-Blue CD40L), FAP-crosslinked, Fold change in Emax [15]: 1 fold
CD40/NF-κB reporter (HEK-Blue CD40L), uncrosslinked, Fold change in Emax [15]: 0.98 fold
Maximum fluorescence value [16]: 10800
4-1BB/NF-κB luciferase reporter, CD40-crosslinked, Fold change in Emax [17]: 1.77 fold
4-1BB/NF-κB luciferase reporter, FAP-crosslinked, EC50 [17]: 40 pM
4-1BB/NF-κB luciferase reporter, FAP-crosslinked, Fold change in Emax [17]: 15.4 fold
4-1BB/NF-κB luciferase reporter, uncrosslinked, Fold change in Emax [17]: 6.03 fold
EC50 [18]: 2480 pM
Maximum fluorescence value [18]: 44200
4-1BB/NF-κB luciferase reporter, CD40-crosslinked, Fold change in Emax [19]: 1.22 fold
4-1BB/NF-κB luciferase reporter, FAP-crosslinked, EC50 [19]: 32 pM
4-1BB/NF-κB luciferase reporter, FAP-crosslinked, Fold change in Emax [19]: 9.38 fold
4-1BB/NF-κB luciferase reporter, uncrosslinked, Fold change in Emax [19]: 3.6 fold
B4: RO7122290 (FAP/4-1BBL bispecific antibody molecule, control) (bispecific antibody, human IgG1, kappa, L234A L235A)
heavy 1: not shown
heavy 2: EVQLLESGGGLVQPGGSLRLSCAASGFTFSSYAMSWVRQAPGKGLEWVSAIIGSGASTYYADSVKGRFTISRDNSKNTLYLQMNSLRAEDTAVYYCAKGWFGGFNYWGQGTLVTVSSASTKGPSVFPLAPSSKSTSGGTAALGCLVKDYFPEPVTVSWNSGALTSGVHTFPAVLQSSGLYSLSSVVTVPSSSLGTQTYICNVNHKPSNTKVDKKVEPKSCDKTHTCPPCPAPEAAGGPSVFLFPPKPKDTLMISRTPEVTCVVVDVSHEDPEVKFNWYVDGVEVHNAKTKPREEQYNSTYRVVSVLTVLHQDWLNGKEYKCKVSNKALGAPIEKTISKAKGQPREPQVCTLPPSRDELTKNQVSLSCAVKGFYPSDIAVEWESNGQPENNYKTTPPVLDSDGSFFLVSKLTVDKSRWQQGNVFSCSVMHEALHNHYTQKSLSLSPGK
light 1: not shown
light 2: EIVLTQSPGTLSLSPGERATLSCRASQSVTSSYLAWYQQKPGQAPRLLINVGSRRATGIPDRFSGSGSGTDFTLTISRLEPEDFAVYYCQQGIMLPPTFGQGTKVEIKRTVAAPSVFIFPPSDEQLKSGTASVVCLLNNFYPREAKVQWKVDNALQSGNSQESVTEQDSKDSTYSLSSTLTLSKADYEKHKVYACEVTHQGLSSPVTKSFNRGEC

The remaining lines, values behind:

B1: anti-CD40 nanobody A297 linked to human IgG1-Fc (C220A, S267E, L328F) (Fc fusion)
chain: QVQLVESGGGMVEPGGSLRLSCAASGFTFSRYGMKWVRQAPGKGPEWVSTINSHGDTTYYADSVKGRFTISRDNAQNTVYLQMNSLKPEDTALYYCLRIDYSDYSSRGQGTQVTVSSEPKSADKTHTCPPCPAPELLGGPSVFLFPPKPKDTLMISRTPEVTCVVVDVEHEDPEVKFNWYVDGVEVHNAKTKPREEQYNSTYRVVSVLTVLHQDWLNGKEYKCKVSSKAFPAPIEKTISKAKGQPREPQVYTLPPSRDELTKNQVSLTCLVKGFYPSDIAVEWESNGQPENNYKTTPPVLDSDGSFFLYSKLTVDKSRWQQGNVFSCSVMHEALHNHYTQKSLSLSPGK
notes: VHH-Fc; no linker between VHH and Fc is stated
FcγRIIb-mediated activation of HEK-Blue CD40L cells, EC50 [1]: 243 pM
EC50 [2]: 1120 pM

B2: humanized anti-CD40 nanobody A297V3 linked to human IgG1-Fc (C220A, S267E, L328F) (Fc fusion)
chain: EVQLVESGGGLVQPGGSLRLSCAASGFTFSRYGMKWVRQAPGKGLEWVSTINSHGDTTYYADSVKGRFTISRDNAKNSLYLQMNSLRAEDTAVYYCLRIDYSDYSSRGQGTLVTVSSEPKSADKTHTCPPCPAPELLGGPSVFLFPPKPKDTLMISRTPEVTCVVVDVEHEDPEVKFNWYVDGVEVHNAKTKPREEQYNSTYRVVSVLTVLHQDWLNGKEYKCKVSSKAFPAPIEKTISKAKGQPREPQVYTLPPSRDELTKNQVSLTCLVKGFYPSDIAVEWESNGQPENNYKTTPPVLDSDGSFFLYSKLTVDKSRWQQGNVFSCSVMHEALHNHYTQKSLSLSPGK
notes: VHH-Fc
FcγRIIb-mediated activation of HEK-Blue CD40L cells, EC50 [1]: 6 pM
EC50 [2]: 1250 pM
